Reference: article PMC10024175, “Structuring supramolecular hyaluronan hydrogels via peptide self-assembly for modulating the cell microenvironment” (Materials Today Bio, 2023)

B1: (KI)3K peptide (peptide)
peptide: Ac-KIKIKIK-NH2
notes: rationally designed cationic amphipathic peptide; Synthesised on a rink amide MBHA resin, so the C-terminus is probably an amide (surmised); source: synthetic peptide (Fmoc solid-phase synthesis, purified by preparative RP-HPLC)
B2: (KI)6K peptide (peptide)
peptide: Ac-KIKIKIKIKIKIK-NH2
notes: as for B1
B3: (KI)5K peptide (peptide)
peptide: Ac-KIKIKIKIKIK-NH2
notes: as for B1
B4: (KI)2K peptide (peptide)
peptide: Ac-KIKIK-NH2
notes: as for B1
B5: (KI)4K peptide (peptide)
peptide: Ac-KIKIKIKIK-NH2
notes: as for B1

How the values were obtained:
[1] = target: the molecule itself; experiment: transmission electron microscopy; 1 mM peptide in deionized water, pH 11 (NH4OH), negative staining with uranyl acetate, dried on the grid
[2] = target: the molecule itself; experiment: FTIR spectroscopy; 10 mM peptide in D2O, pH 7, NaCl 0, 50, 100, 200, 300 and 400 mM; beta-sheet formation read as self-assembly
[3] = target: the molecule itself; experiment: zeta potential; 1 mM peptide in ultrapure water, neutral pH; self-association of the peptide

Row | Protein | binding result [1] | further results
1 | B1 | binds | –
2 | B2 | – | binding result [2]: binds
3 | B3 | – | binding result [3]: binds
4 | B4 | binds | –
5 | B5 | binds | –
